Read-outs that look alike come from different tables or passages of the source.
Tests used:
F1 hybrid maize plants [1] = test: efficacy field trial for quizalofop-P tolerance and clethodim sensitivity; format: in vivo; conditions: scale 0 to 100; for average injury rating, V4 Growth Stage, 4x Quizalofop / average injury rating, V8 Growth Stage, 4x Quizalofop: 0.32 lb ai/acre at VE-V2, V4, V8; for average injury rating, V4 Growth Stage, 4x Quizalofop / average injury rating, V8 Growth Stage, 4x Quizalofop / average injury rating, V4 Growth Stage, 8x Quizalofop / average injury rating, V8 Growth Stage, 8x Quizalofop / average injury rating, V4 Growth Stage, 16x Quizalofop / average injury rating, V8 Growth Stage, 16x Quizalofop: with CTP unless label says no CTP; for average injury rating, V4 Growth Stage, 8x Quizalofop / average injury rating, V8 Growth Stage, 8x Quizalofop: 0.64 lb ai/acre at VE-V2, V4, V8; for average injury rating, V4 Growth Stage, 16x Quizalofop / average injury rating, V8 Growth Stage, 16x Quizalofop: 1.28 lb ai/acre at VE-V2, V4, V8; for average injury rating, V8 Growth Stage, 1x Clethodim: clethodim 0.25 lb ai/acre at V8, volunteer control
Description: (§1) Separate trait efficacy field trials for quizalofop-P and 2,4-D were conducted at two locations cach with F1 hybrid transgenic plants produced by crossing an inbred plant containing maize event MON89034 with an R1 plant containing MON-HT55 (with a CTP), MON-HTI (with or without a CTP), MON-HT2 (with or without a CTP), MON-HT3 (with a CTP), MON-HT4 (with a CTP), MON-HT5 (with a CTP), MON-HT6 (with a CTP), or MON-HT7 (with a CTP). Transgenic F1 hybrid plants containing maize events NK603×MON89034 were used for comparison as a control.
In the efficacy field trial for quizalofop-P tolerance and clethodim sensitivity, one of four herbicide treatments was used: (1) quizalofop-P (Assure II) at 0.32 lb ai/acre (4×) plus 0.25% v/v non-ionic surfactant (NIS) applied at VE-V2 growth stage followed by the same at V4 growth stage followed by the same at V8 growth stage; (2) quizalofop-P at 0.64 lb ai/acre (8×) plus 0.25% v/v NIS applied at VE to V2 growth stage followed by the same at V4 growth stage followed by the same at V8 growth stage; (3) quizalofop-P at 1.28 lb ai/acre (16×) plus 0.25% v/v NIS applied at VE to V2 growth stage followed by the same at V4 growth stage followed by the same at V8growth stage; or (4) clethodim at 0.25 lb ai/acre (1×) plus 0.25% v/v NIS applied at V8 growth stage. Plots were visually rated 10-14 days after application for crop injury on a scale of 0 to 100with “0” being none and “100” being complete crop destruction. Tables 14 and 15 show the average injury ratings after herbicide application at V4 or V8 growth stage, respectively.

F1 hybrid maize plants [2] = test: efficacy field trial for 2,4-D tolerance; format: in vivo; conditions: scale 0 to 100, with CTP unless label says no CTP; for average injury rating, V4 Growth Stage, 2x 2,4-D / average injury rating, V8 Growth Stage, 2x 2,4-D: 2 lb ae/acre at VE-V2, V4, V8; for average injury rating, V4 Growth Stage, 4x 2,4-D / average injury rating, V8 Growth Stage, 4x 2,4-D: 4 lb ae/acre at VE-V2, V4, V8; for average injury rating, V4 Growth Stage, 8x 2,4-D / average injury rating, V8 Growth Stage, 8x 2,4-D: 8 lb ae/acre at VE-V2, V4, V8; for average injury rating, V4 Growth Stage, 16x 2,4-D / average injury rating, V8 Growth Stage, 16x 2,4-D: 16 lb ae/acre at VE-V2, V4, V8
Description: as §1
In the efficacy field trial for 2,4-D tolerance, one of four herbicide treatments was used: (1) 2,4-D amine at 2 lb ac/acre (2×) plus 0.25% v/v non-ionic surfactant (NIS) applied to VE to V2 followed by V4 followed by V8; (2) 2,4-D amine at 4 lb ac/acre (4×) plus 0.25% v/v NIS applied to VE to V2 followed by V4 followed by V8; (3) 2,4-D amine at 8 lb ac/acre (8×) plus 0.25% v/v NIS applied to VE to V2 followed by V4 followed by V8 maize; or (4) 2,4-D amine at 16 lb ac/acre (16×) plus 0.25% v/v NIS applied to VE to V2 followed by V4 followed by V8. Plots were visually rated as above. Tables 14 and 15 show the average injury ratings after herbicide application at V4 or V8 growth stage, respectively.

[3] = kinetic analysis, non-endpoint assay at 23° C.; format: biochemical; conditions: standard error in parenthetical
In short: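 Purified C-terminal 6-His-tagged recombinant enzymes expressed in bacteria; quizalofop-P or 2,4-D as substrate. Vmax reported as specific activity (umol herbicide product mg enzyme-1 min-1) and Km as mM herbicide substrate, with standard error.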

[4] = enzyme activity assay at 23° C. with purified enzyme; format: biochemical; conditions: for maximum activities for all four substrates compared with the wild-type enzyme: haloxyfop, fenoxaprop, fluazifop and dichlorprop; for maximum activity as a percentage of the wild-type enzyme's activity, Haloxyfop: purified enzyme; for maximum activity as a percentage of the wild-type enzyme's activity, Haloxyfop / maximum activity as a percentage of the wild-type enzyme's activity, Dichlorprop / maximum activity as a percentage of the wild-type enzyme's activity, Fenoxaprop / maximum activity as a percentage of the wild-type enzyme's activity, Fluazifop: wild-type set at 100%
Description: The enzyme activity of MON-HT protein variants with haloxyfop, fenoxaprop, fluazifop, and dichlorprop as substrates was determined using the enzyme activity assay conducted at 23° C. with purified enzyme. The activity was recorded as the maximum activity as a percentage of the wild-type enzyme's activity, which was set at 100%.

[5] = 23° C., purified His-tagged protein
[6] = 23° C., purified His-tagged protein, read-out: Km Quizalofop
[7] = NDB = activity not robust enough for kinetic characterization

Row | Molecule | average injury rating, V4 Growth Stage, 4x Quizalofop (F1 hybrid maize plants [1]) | average injury rating, V8 Growth Stage, 4x Quizalofop (F1 hybrid maize plants [1]) | average injury rating, V4 Growth Stage, 8x Quizalofop (F1 hybrid maize plants [1]) | average injury rating, V8 Growth Stage, 8x Quizalofop (F1 hybrid maize plants [1]) | average injury rating, V4 Growth Stage, 16x Quizalofop (F1 hybrid maize plants [1]) | average injury rating, V8 Growth Stage, 16x Quizalofop (F1 hybrid maize plants [1]) | average injury rating, V8 Growth Stage, 1x Clethodim (F1 hybrid maize plants [1]) | average injury rating, V4 Growth Stage, 2x 2,4-D (F1 hybrid maize plants [2]) | average injury rating, V8 Growth Stage, 2x 2,4-D (F1 hybrid maize plants [2]) | average injury rating, V4 Growth Stage, 4x 2,4-D (F1 hybrid maize plants [2]) | average injury rating, V8 Growth Stage, 4x 2,4-D (F1 hybrid maize plants [2]) | average injury rating, V4 Growth Stage, 8x 2,4-D (F1 hybrid maize plants [2]) | average injury rating, V8 Growth Stage, 8x 2,4-D (F1 hybrid maize plants [2]) | average injury rating, V4 Growth Stage, 16x 2,4-D (F1 hybrid maize plants [2]) | average injury rating, V8 Growth Stage, 16x 2,4-D (F1 hybrid maize plants [2]) | Vmax Quizalofop [3, 5] | Km [3, 6] [µM] | Vmax 2,4-D [3, 7] | maximum activities for all four substrates compared with the wild-type enzyme [4] | maximum activity as a percentage of the wild-type enzyme's activity, Haloxyfop [4] [%] | other results
1 | MON-HT4: engineered oxygenase protein, amino acid sequence SEQ ID NO:25 (protein) MHAALTPLTNKYRFIDVQPLTGVLGAEITGVDLREPLDDSTWNEILDAFHTYQVIYFPGQAITNEQHIAFSRRFGPVDPVPLLKSIEGYPEVQMIRREANESGRVIGDDWHTDSTFLDAPPAAVVMYAREVPPYGGDTGFLSMYTAWETLSPTMQATIEGLNVVHSATRVFGSLYQAQNRRYSNTSVKVMDVDAGDRETVHPLVVSHPVTGRRALYCNQVYCQRIEGMTDAESKSLLQFLYEHATKFDFTCRVRWKKDQVLVWDNLCTMHRAVPDYAGKFRYLTRTTVAGDKPSR | 2.8 | 3.3 | 3.3 | 3.3 | 13.8 | 8.0 | 94.5 | 0.0 | 2.0 | 1.3 | 8.8 | 8.8 | 12.5 | 18.8 | 21.3 | 0.30 (−0.02) umol herbicide product mg enzyme-1 min-1 | 240 | NDB | lower than, or equal to | 49 | Km 2,4-D [3, 7]: NDB; maximum activity as a percentage of the wild-type enzyme's activity, Dichlorprop [4]: 39%; maximum activity as a percentage of the wild-type enzyme's activity, Fenoxaprop [4]: 53%; maximum activity as a percentage of the wild-type enzyme's activity, Fluazifop [4]: 52%
2 | MON-HT5: engineered oxygenase protein, amino acid sequence SEQ ID NO:28 (protein) MHAALTPLTNKYRFIDVQPLTGVLGAEITGVDLREPLDDSTWNEILDAFHTYQVIYFPGQAITNEQHIAFSRRFGPVDPVPLLKSIEGYPEVQMIRREANESGRVIGDDWHTDSTFLDAPPAAVVMRAIEVPEYGGDTGFLSMYSAWETLSPTMQATIEGLNVVHSATKVFGSLYQATNWRFSNTSVKVMDVDAGDRETVHPLVVTHPVTGRRALYCNQVYCQKIQGMTDAESKSLLQFLYEHATKFDFTCRVRWKKDQVLVWDNLCTMHRAVPDYAGKFRYLTRTTVAGDKPSR | 1.3 | 2.5 | 4.5 | 0.0 | 4.5 | 8.0 | 92.0 | 2.5 | 3.3 | 2.5 | 4.0 | 7.5 | 10.0 | 17.5 | 21.3 | 0.57 (−0.03) umol herbicide product mg enzyme-1 min-1 | 170 | NDB | lower than, or equal to | 100 | Km 2,4-D [3, 7]: NDB; maximum activity as a percentage of the wild-type enzyme's activity, Dichlorprop [4]: 36%; maximum activity as a percentage of the wild-type enzyme's activity, Fenoxaprop [4]: 92%; maximum activity as a percentage of the wild-type enzyme's activity, Fluazifop [4]: 46%
3 | MON-HT3: engineered oxygenase protein, amino acid sequence SEQ ID NO:22 (protein) MHAALSPLSQRFERIAVQPLTGVLGAEITGVDLREPLDDSTWNEILDAFHTYQVIYFPGQAITNEQHIAFSRRFGPVDPVPLLKSIEGYPEVQMIRREANESGRVIGDDWHTDSTFLDAPPAAVVMYAKEVPPYGGDTLFASMYTAWETLSPTMQATIEGLNVVHSATRVFGSLYQAQNRRFSNTSVKVMDVDAGDRETVHPLVVTHPETGRKGLYVNQVYCQRIEGMSEKESEPLLSFLFAHATKPEFTCRVRWQEGQVLVWDNLCTQHFAVPDYAGKFRYLTRTTVGGVRPAR | 0.8 | 2.5 | 0.0 | 2.0 | 4.3 | 6.0 | 94.5 | 3.8 | 5.5 | 6.3 | 5.5 | 8.8 | 11.3 | 11.3 | 13.8 | 0.77 (−0.04) umol herbicide product mg enzyme-1 min-1 | 380 | 0.10 (−0.01) umol herbicide product mg enzyme-1 min-1 | lower than, or equal to | 67 | Km ([3]; NDB = activity not robust enough for kinetic characterization, read-out: Km 2,4-D): 270 µM; maximum activity as a percentage of the wild-type enzyme's activity, Dichlorprop [4]: 100%; maximum activity as a percentage of the wild-type enzyme's activity, Fenoxaprop [4]: 83%; maximum activity as a percentage of the wild-type enzyme's activity, Fluazifop [4]: 60%

Source: patent US12723255B2, “Herbicide tolerance genes and methods of use thereof” (priority 2014, dated 2026)
